Experimental data published in patent publication US9745384B2, “Peptides useful for modulating histone demethylase function” (The Brigham and Women's Hospital, Inc., priority 2012, dated 2017).
Blank lines part the entries; values can stand above or below the molecule they belong to.

Tests used:
Type in all cases: biochemical
His-LSD2 = biological target: T1, His-LSD2 (Homo sapiens, UniProt Q8NB78); test: Nucleosome demethylation assay (NPAC cofactor activity for LSD2, immunoblot)
T1 construct: typically 0.5 μg full-length His-LSD2; made in house; host or cells: Sf9 insect cells
T1 sequence (Q8NB78 1-822): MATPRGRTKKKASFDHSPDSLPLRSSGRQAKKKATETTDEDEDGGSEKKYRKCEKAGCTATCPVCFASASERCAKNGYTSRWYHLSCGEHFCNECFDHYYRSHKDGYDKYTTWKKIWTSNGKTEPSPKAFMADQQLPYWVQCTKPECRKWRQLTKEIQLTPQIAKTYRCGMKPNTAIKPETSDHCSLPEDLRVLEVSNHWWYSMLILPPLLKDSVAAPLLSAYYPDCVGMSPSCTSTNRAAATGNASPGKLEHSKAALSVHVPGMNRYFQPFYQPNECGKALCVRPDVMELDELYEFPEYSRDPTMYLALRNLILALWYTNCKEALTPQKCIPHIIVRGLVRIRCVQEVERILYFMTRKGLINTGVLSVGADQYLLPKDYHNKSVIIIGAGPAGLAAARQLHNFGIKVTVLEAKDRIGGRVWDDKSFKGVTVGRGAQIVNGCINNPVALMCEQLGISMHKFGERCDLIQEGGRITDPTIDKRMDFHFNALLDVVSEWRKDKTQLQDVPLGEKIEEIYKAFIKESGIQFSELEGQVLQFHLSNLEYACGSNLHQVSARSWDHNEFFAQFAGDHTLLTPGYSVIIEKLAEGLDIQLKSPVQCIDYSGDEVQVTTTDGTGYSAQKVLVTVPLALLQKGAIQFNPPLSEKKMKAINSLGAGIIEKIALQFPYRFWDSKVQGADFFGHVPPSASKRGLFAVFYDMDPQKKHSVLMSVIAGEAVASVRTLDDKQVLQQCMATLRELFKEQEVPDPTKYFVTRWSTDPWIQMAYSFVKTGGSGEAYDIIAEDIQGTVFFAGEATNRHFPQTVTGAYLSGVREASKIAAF
Experimental: For nucleosome demethylation assays, typically 0.5 μg full-length His-LSD2, 1 μg NPAC protein or peptides, and 2 μg nucleosomes purified from HeLa were used, and demethylation efficiency was analyzed by SDS-PAGE electrophoresis and immunoblot using methylation specific anti-histone H3 antibodies as previously described (Shi et al. 2004).

LSD2 [1] = biological target: T2, LSD2 (Homo sapiens, UniProt Q8NB78); test: H3K4me2 peptide demethylation assay (MALDI-TOF); design: 0.15 μM or 1.2 μM purified LSD2 (residues 51-822); His6 (cleaved yes); made in house; host or cells: Sf9 insect cells (baculovirus); conditions: longer H3K4me2 peptide residues 1-44
T2 sequence (Q8NB78 1-822): T1 sequence (Q8NB78 1-822)
Experimental: FIGS. 12A-12F depict analysis of LSD2 demethylation activity and mutational analysis. […] Demethylation products were analyzed by MALDI-TOF mass spectrometry. 0.15 μM LSD2 can efficiently demethylate the longer H3K4me2 peptide (1-21), but has no detectable activity on the shorter histone peptide (1-15), demethylation of which requires high concentration (1.2 μM) of LSD2. […] It indicates the importance of histone residue 16-21 to LSD2 enzymatic activity and NPAC cofactor activity, supporting our model that NPAC assists enzyme-substrate interactions by creating a new binding site for H3 L20 in the LSD2-NPAC complex. FIG. 12C depicts LSD2 demethylation and NPAC cofactor activity on longer H3K4me2 peptide (1-44). […] The cofactor activity of wild-type NPAC was readily detected under the same conditions. […] It is noted that no obvious cofactor effect of F217A peptide or linker regions was detected in nucleosome and peptide demethylation assays (FIG. 6E and data not shown). […]
Histone peptides are purchased from Millipore, or custom synthesized. The purity of all peptides are >95% as determined by HPLC and mass spectrometry. […] The products were desalted through a C18 Ziptip (Millipore) and analyzed on a MALDI-TOF micro MX mass spectrometer (ABI 4700, Applied Biosystems). […]

LSD1 = LSD1 (Homo sapiens, UniProt O60341); test: LSD1-mediated nucleosome demethylation assay; conditions: 2 μg LSD1 with 5 μg cofactor protein
Experimental: FIG. 7A depicts the determination of the threshold dosage of purified LSD2 required for nucleosomal H3K4 demethylation. 2 μg of nucleosomes purified from HeLa were incubated with various amount of His-LSD2 proteins for 2 hours at 30° C. The demethylation reactions were analyzed by immunoblotting using indicated antibodies. […] 2 μg LSD1 in combination with 5 μg purified NPAC or CoREST protein was used for histone demethylase assays. […] Transfected cells are marked by arrows; cells shown significant reduction of H3K4me1 are marked by dotted circles. […] In contrast, coexpression of LSD2 and NPAC induces obvious global decrease of H3K4me1. […] FIG. 7D depicts immunofluorescence analyses of H3K9me2 demethylation in cells coexpressing LSD2 and full-length NPAC.

LSD2 [2] = biological target: T3, LSD2 (Homo sapiens, UniProt Q8NB78); test: H3K4me2 peptide demethylation assay (MALDI-TOF); conditions: H3K4me2 peptide residues 1-21
T3 construct: 0.15 μM or 1.2 μM purified LSD2 (residues 51-822); His6 (cleaved yes); made in house; host or cells: Sf9 insect cells (baculovirus)
T3 sequence (Q8NB78 51-822): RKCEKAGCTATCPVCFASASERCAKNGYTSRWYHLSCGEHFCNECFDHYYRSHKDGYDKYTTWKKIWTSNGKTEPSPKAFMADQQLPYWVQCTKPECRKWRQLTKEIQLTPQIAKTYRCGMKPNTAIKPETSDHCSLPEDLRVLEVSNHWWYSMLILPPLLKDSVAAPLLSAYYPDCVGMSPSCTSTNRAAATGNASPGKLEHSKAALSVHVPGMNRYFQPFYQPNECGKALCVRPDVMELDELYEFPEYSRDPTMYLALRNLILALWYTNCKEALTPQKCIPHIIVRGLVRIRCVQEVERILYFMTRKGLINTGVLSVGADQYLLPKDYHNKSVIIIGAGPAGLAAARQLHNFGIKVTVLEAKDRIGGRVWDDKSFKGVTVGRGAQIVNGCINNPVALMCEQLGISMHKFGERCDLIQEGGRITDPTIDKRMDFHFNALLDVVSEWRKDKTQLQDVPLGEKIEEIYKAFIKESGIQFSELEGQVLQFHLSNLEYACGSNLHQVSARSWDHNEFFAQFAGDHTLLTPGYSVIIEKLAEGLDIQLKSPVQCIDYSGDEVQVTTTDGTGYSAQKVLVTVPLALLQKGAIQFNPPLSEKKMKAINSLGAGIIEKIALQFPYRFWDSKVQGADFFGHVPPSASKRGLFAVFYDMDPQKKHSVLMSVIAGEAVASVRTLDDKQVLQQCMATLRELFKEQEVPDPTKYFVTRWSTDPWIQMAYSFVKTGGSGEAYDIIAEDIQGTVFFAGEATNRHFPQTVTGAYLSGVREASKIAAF
Experimental: FIGS. 12A-12F depict analysis of LSD2 demethylation activity and mutational analysis. […] Demethylation products were analyzed by MALDI-TOF mass spectrometry. 0.15 μM LSD2 can efficiently demethylate the longer H3K4me2 peptide (1-21), but has no detectable activity on the shorter histone peptide (1-15), demethylation of which requires high concentration (1.2 μM) of LSD2. […] It indicates the importance of histone residue 16-21 to LSD2 enzymatic activity and NPAC cofactor activity, supporting our model that NPAC assists enzyme-substrate interactions by creating a new binding site for H3 L20 in the LSD2-NPAC complex. FIG. 12C depicts LSD2 demethylation and NPAC cofactor activity on longer H3K4me2 peptide (1-44). 2 μg H3K4me2 peptide (1-44) were incubated with 0.8 μg GST-LSD2 (1-822) and 2 μg wild-type or F217A full-length GST-NPAC proteins in 100 μl demethylation buffer (50 mM Tris-HCl pH 8.1, 1 mM NAD^+, 0.1 Unit formaldehyde dehydrogenase) at 30° C. for 2 hours. LSD2 alone can efficiently demethylate di-methyl H3K4 of the long peptides, converting large majority of the substrate to H3K4me1. Wild-type NPAC protein can efficiently stimulate LSD2 demethylation, producing unmethylated H3K4. F217A mutation impairs NPAC cofactor activity as expected, showing little stimulatory effect if any. To compare demethylation efficiency, 1.2 μg bio-H3K4me2 peptide (H3 residue 1-21, equal molar ratio to 2 ug H3K4me2 1-44 peptide in above assays) was demethylated by LSD2 under identical conditions (bottom panel). […] The cofactor activity of wild-type NPAC was readily detected under the same conditions. […] Importantly, the demethylation of nucleosomal H3K4me2 was much more efficient in the presence of wild-type NPAC under same conditions (comparing lane 3 verse 4, and 8 verse 9). It is noted that no obvious cofactor effect of F217A peptide or linker regions was detected in nucleosome and peptide demethylation assays (FIG. 6E and data not shown). FIG. 12F depicts Coomassie staining of NPAC proteins used in histone demethylase assays. FIG. 12F discloses “His6” as SEQ ID NO: 75.
Histone peptides are purchased from Millipore, or custom synthesized. The purity of all peptides are >95% as determined by HPLC and mass spectrometry. In vitro histone demethylase activity assays were performed as described (Shi et al., 2004). Briefly, purified LSD2 and NPAC derived peptides or proteins were incubated with 50 μM H3K4me2 peptides (residues 1-21) in 50 mM Tris-HCl, pH 8.5, 50 mM KCl, 5 mM MgCl2, 5% glycerol at 37° C. for 30 min. The products were desalted through a C18 Ziptip (Millipore) and analyzed on a MALDI-TOF micro MX mass spectrometer (ABI 4700, Applied Biosystems). The laser intensity was kept constant for all of the samples. All MS data were processed using Data Explorer 4.5 (Applied Biosystems). […]

- Cofactor activity on nucleosomes when more NPAC and LSD2 proteins were used (His-LSD2; more NPAC and LSD2 than threshold assay (FIG. 12E)): residual stimulatory activity
- Cofactor activity: stimulation of LSD2 demethylation of nucleosomal H3K4me2 (His-LSD2; threshold dosage of His-LSD2, nucleosomes purified from HeLa): didn't detect cofactor activity
- Cofactor activity: stimulation of LSD2 demethylation of H3K4me2 peptide (LSD2 [1]): very weak or undetectable
B1: full-length NPAC F217A protein: full-length NPAC protein with F217A mutation (protein, UniProt Q49A26 1-553, looked up, variant F217A)
chain: MAAVSLRLGDLVWGKLGRYPPWPGKIVNPPKDLKKPRGKKCFFVKFFGTEDHAWIKVEQLKPYHAHKEEMIKINKGKRFQQAVDAVEEFLRRAKGKDQTSSHNSSDDKNRRNSSEERSRPNSGDEKRKLSLSEGKVKKNMGEGKKRVSSGSSERGSKSPLKRAQEQSPRKRGRPPKDEKDLTIPESSTVKGMMAGPMAAFKWQPTASEPVKDADPHAHHFLLSQTEKPAVCYQAITKKLKICEEETGSTSIQAADSTAVNGSITPTDKKIGFLGLGLMGSGIVSNLLKMGHTVTVWNRTAEKCDLFIQEGARLGRTPAEVVSTCDITFACVSDPKAAKDLVLGPSGVLQGIRPGKCYVDMSTVDADTVTELAQVIVSRGGRFLEAPVSGNQQLSNDGMLVILAAGDRGLYEDCSSCFQAMGKTSFFLGEVGNAAKMMLIVNMVQGSFMATIAEGLTLAQVTGQSQQTLLDILNQGQLASIFLDQKCQNILQGNFKPDFYLKYIQKDLRLAIALGDAVNHPTPMAAAANEVYKRAKALDQSDNDMSAVYRAYIH
modifications: full-length
notes: full-length NPAC protein with F217A mutation

- Cofactor activity: stimulation of LSD2 demethylation of H3K4me2 peptide (LSD2 [2]): strong cofactor activity for LSD2
B2: linker region of NPAC: NPAC linker region, residues 152-252 or 152-268 (protein)
chain: SERGSKSPLKRAQEQSPRKRGRPPKDEKDLTIPESSTVKGMMAGPMAAFKWQPTASEPVKDADPHFHHFLLSQTEKPAVCYQAITKKLKICEEETGSTSIQ
modifications: left off: a dimerising Fc or GST
- Stimulation of LSD1 nucleosome demethylation (LSD1): failed to stimulate LSD1 demethylation of nucleosomes
